The labels stand for the following.
B1: XIAP BIR2^93-240 (domain or fragment)
chain: GPINGFYLENSATQSTNSGIQNGQYKVENYLGSRDHFALDRPSETHADYLLRTGQVVDISDTIYPRNPAMYSEEARLKSFQNWPDYAHLTPRELASAGLYYTGIGDQVQCFCCGGKLKNWEPCDRAWSEHRRHFPNCFFVLGRNLNIRSE
B2: XIAP BIR2^124-240 (domain or fragment)
chain: GPRDHFALDRPSETHADYLLRTGQVVDISDTIYPRNPAMYSEEARLKSFQNWPDYAHLTPRELASAGLYYTGIGDQVQCFCCGGKLKNWEPCDRAWSEHRRHFPNCFFVLGRNLNIRSE
B3: XIAP BIR2AG^124-240 (domain or fragment)
chain: B2 chain with C81A, C92G
B4: XIAP BIR2^124-263 (domain or fragment)
chain: GPRDHFALDRPSETHADYLLRTGQVVDISDTIYPRNPAMYSEEARLKSFQNWPDYAHLTPRELASAGLYYTGIGDQVQCFCCGGKLKNWEPCDRAWSEHRRHFPNCFFVLGRNLNIRSESDAVSSDRNFPNSTNLPRNPSMA
B5: XIAP BIR2^154-240 (domain or fragment)
chain: YPRNPAMYSEEARLKSFQNWPDYAHLTPRELASAGLYYTGIGDQVQCFCCGGKLKNWEPCDRAWSEHRRHFPNCFFVLGRNLNIRSE
B6: XIAP BIR2AG^154-240 (domain or fragment)
chain: B5 chain with C49A, C60G
B7: RIP2K^1-317 (kinase domain of human RIP2, residues 1-317) (domain or fragment)
chain: MNGEAICSALPTIPYHKLADLRYLSRGASGTVSSARHADWRVQVAVKHLHIHTPLLDSERKDVLREAEILHKARFSYILPILGICNEPEFLGIVTEYMPNGSLNELLHRKTEYPDVAWPLRFRILHEIALGVNYLHNMTPPLLHHDLKTQNILLDNEFHVKIADFGLSKWRMMSLSQSRSSKSAPEGGTIIYMPPENYEPGQKSRASIKHDIYSYAVITWEVLSRKQPFEDVTNPLQIMYSVSQGHRPVINEESLPYDIPHRARMISLIESGWAQNPDERPSFLKCLIELEPVLRTFEEITFLEAVIQLKKTKLQSV
B8: XIAP BIR2^93-263 (domain or fragment)
chain: GPINGFYLENSATQSTNSGIQNGQYKVENYLGSRDHFALDRPSETHADYLLRTGQVVDISDTIYPRNPAMYSEEARLKSFQNWPDYAHLTPRELASAGLYYTGIGDQVQCFCCGGKLKNWEPCDRAWSEHRRHFPNCFFVLGRNLNIRSESDAVSSDRNFPNSTNLPRNPSMA

For data set [1], the target named is RIP2K^1-300 (kinase domain of human RIP2, residues 1-300) (human, UniProt O43353 1-300). The data set is described as follows: MST.
For data set [2], the target named is B7. The data set can be described thus: native MS.
The target in data set [3] is B7. The data set is described as follows: NMR translational diffusion.
In data set [4] the target is B7. The data set can be described thus: cryo-EM structure.
Data set [5] concerns the molecule itself. The data set can be described thus: native MS.

Residue numbers refer to the chain shown, from its start. Where “and” joins values, the source holds several entries; their conditions need not be identical. Identical values can stand only once.

One may read the Kd as the free concentration of one partner at which half of the binding sites on the other are occupied at equilibrium, for simple one-to-one binding. Low readings indicate higher affinity, high ones lower affinity.

As for B1, in data set [1], the binding result was “binds”.
On to B2, for which, in data set [2], the “stoichiometry N” value was 1 RIP2K per XIAP BIR2 (2:2) and 2 RIP2K per XIAP BIR2 (2:1).
Consider B3, for which the “stoichiometry N” value in data set [2] is 1 RIP2K per XIAP BIR2 (2:2); in data set [3] it was 2 RIP2 per BIR2 (1:2 BIR2:RIP2).
With B4, the binding result in data set [1] was “binds”.
Molecule B5 showed a Kd in data set [1] of 85.6 ± 18.7 nM. Further, the “stoichiometry N” value in data set [2] was 1 RIP2K per XIAP BIR2 (2:2); in data set [4] it was 2 RIP2K per XIAP BIR2 (2:1).
On to B6, for which the “stoichiometry N” value in data set [2] is 2 RIP2K per XIAP BIR2 (2:1) and 1 RIP2K per XIAP BIR2 (2:2).
For B7, the “stoichiometry N” value in data set [5] came to 2.
Turning to B8, the binding result in data set [1] is listed as “binds”.

(Values after publication doi:10.1101/2022.10.14.512215 (bioRxiv, 2022).)
